These results are taken from publication PMC11975286, “Functional dissection of the conserved C. elegans LEM-3/ANKLE1 nuclease reveals a crucial requirement for the LEM-like and GIY-YIG domains for DNA bridge processing”.

The target of one data set is T1, LEM-3(241-704) (Caenorhabditis elegans, UniProt G5EGA3 241-704).
T1 sequence: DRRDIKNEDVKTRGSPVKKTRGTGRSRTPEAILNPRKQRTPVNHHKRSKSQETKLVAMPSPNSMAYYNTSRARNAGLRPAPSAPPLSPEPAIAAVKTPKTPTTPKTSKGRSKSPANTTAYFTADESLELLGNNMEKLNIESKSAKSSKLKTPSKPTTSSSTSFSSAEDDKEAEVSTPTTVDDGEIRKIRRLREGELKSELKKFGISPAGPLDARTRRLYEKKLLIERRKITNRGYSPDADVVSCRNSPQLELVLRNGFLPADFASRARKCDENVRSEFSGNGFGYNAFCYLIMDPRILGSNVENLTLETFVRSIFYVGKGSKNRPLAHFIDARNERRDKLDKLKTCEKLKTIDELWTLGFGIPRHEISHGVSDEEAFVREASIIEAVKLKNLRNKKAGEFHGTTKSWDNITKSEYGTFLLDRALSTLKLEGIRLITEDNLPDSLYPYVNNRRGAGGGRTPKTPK
Nature of the data set: EMSA; no divalent metal, 100 mM Na+; 0.13 nM HJ; cooperative (Hill) fit; 10 mM Tris-HCl pH 7.5, 100 mM NaCl, 5% glycerol, 5 ng/ul poly(dI-dC), 4 C, 1 h; 8.3 nM HJ-X0-1 (0.13 nM for Kd); 6% native PAGE, 0.5x TBE, 4 C. The settings on record: protein: recombinant; tags: His-GST removed by TEV; label: 5'-Cy5 on X0-1; four-way junction of 4 strands, 1 copy each. (In general: In EMSA bound probe runs differently from free probe, usually more slowly.)

Another data set deals with T2, LEM-3(485-704) (Caenorhabditis elegans, UniProt G5EGA3 485-704).
T2 sequence: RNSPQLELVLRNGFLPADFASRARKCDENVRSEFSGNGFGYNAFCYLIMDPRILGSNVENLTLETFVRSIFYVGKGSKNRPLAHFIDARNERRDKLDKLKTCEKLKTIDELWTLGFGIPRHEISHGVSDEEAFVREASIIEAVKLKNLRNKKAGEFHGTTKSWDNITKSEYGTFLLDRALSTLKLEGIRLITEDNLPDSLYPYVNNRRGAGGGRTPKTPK
Nature of the data set: EMSA; no divalent metal, 100 mM Na+; 10 mM Tris-HCl pH 7.5, 100 mM NaCl, 5% glycerol, 5 ng/ul poly(dI-dC), 4 C, 1 h; 8.3 nM HJ-X0-1 (0.13 nM for Kd); 6% native PAGE, 0.5x TBE, 4 C. The settings on record: protein: recombinant; tags: His-GST removed by TEV; label: 5'-Cy5 on X0-1; four-way junction of 4 strands, 1 copy each.

B1: HJ-X0-1 (immobile Holliday junction) (structured_DNA)
DNA 1: ACGCTGCCGAATTCTACCAGTGCCTTGCTAGGACATCTTTGCCCACCTGCAGGTTCACCC
DNA 2: GGGTGAACCTGCAGGTGGGCAAAGATGTCCATCTGTTGTAATCGTCAAGCTTTATGCCGT
DNA 3: ACGGCATAAAGCTTGACGATTACAACAGATCATGGAGCTGTCTAGAGGATCCGACTATCG
DNA 4: CGATAGTCGGATCCTCTAGACAGCTCCATGTAGCAAGGCACTGGTAGAATTCGGCAGCGT
As a reminder, the Kd is the constant that tells how readily two partners part at equilibrium. In the case of B1, the Kd in the data set with LEM-3(241-704) is roughly 40 nM. In the data set with LEM-3(485-704), the binding result was “no binding”.
